Source: patent US6465188, “Nucleic acid ligand complexes” (Gilead Sciences, Inc.)

Biological target: VEGF (vascular endothelial growth factor) (UniProt P15692-4 P15692-4:27-191)
Assay: competition; competition ELISA apparent ED50; reduction attributed to geometry of liposome display
Settings: chain copies: 2

Chain of VEGF (vascular endothelial growth factor) (P15692 other isoform, or with tags, fused parts or gaps): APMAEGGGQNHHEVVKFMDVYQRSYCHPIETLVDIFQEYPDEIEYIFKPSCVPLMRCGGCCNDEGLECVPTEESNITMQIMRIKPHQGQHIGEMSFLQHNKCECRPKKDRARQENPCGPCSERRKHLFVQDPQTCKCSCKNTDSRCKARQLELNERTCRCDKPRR

B1: NX278-Liposome (mixed)
mixed: TTTTACCCUGAUGGUAGACGCCGGGGUGTTTTT
modifications: 5'-dialkylglycerol (DAG), embedded in DSPC:cholesterol liposome; PS at 1-4 and 29-33; 2'-OMe at 5,13,16,17,20,23-26,28; 2'-NH2 at 6-9,12,15,19,21,22,27
- EC50: ~100 nM
